Assay results reported in US12048734B2, “Bioactive peptides and methods of use thereof” (OP-T LLC, priority 2020, dated 2024).

Test system: CD4loCD40+ T cells (Th40 cells)
Assay: Cytokine production of CD40- or CD3-stimulated Th40 cells with galectin-9
Type: cell-based, NOD mice
Conditions: 3 days; indicated concentrations of galectin-9
Description: CD4loCD40+ T cells (Th40 cells) were sorted from 7-20 weeks old female NOD spleens. Cells were either isotype treated, CD40- or CD3-stimulated in the absence/presence of indicated concentrations of galectin-9 (gal-9; mg/ml) for 3 days then cytokines were measured. Bar graphs depict means with SEM. Asterisks denote significant differences determined by one-way Anova; *-P between 0.01 and 0.05; **-P, 0.01; ***-P, 0.001. Measurements were done on four individual mice of different ages.

B1: galectin-9: galectin-9 protein added to Th40 cell cultures (protein, UniProt O00182 1-355, looked up)
Galectin-9: MAFSGSQAPYLSPAVPFSGTIQGGLQDGLQITVNGTVLSSSGTRFAVNFQTGFSGNDIAFHFNPRFEDGGYVVCNTRQNGSWGPEERKTHMPFQKGMPFDLCFLVQSSDFKVMVNGILFVQYFHRVPFHRVDTISVNGSVQLSYISFQNPRTVPVQPAFSTVPFSQPVCFPPRPRGRRQKPPGVWPANPAPITQTVIHTVQSAPGQMFSTPAIPPMMYPHPAYPMPFITTILGGLYPSKSILLSGTVLPSAQRFHINLCSGNHIAFHLNPRFDENAVVRNTQIDNSWGSEERSLPRKMPFVRGQSFSVWILCEAHCLKVAVDGQHLFEYYHRLRNLPTINRLEVGGDIQLTHVQT
  CD40 and CD3 induced cytokine production level: alters the production level
